Experimental data as given in US20190367612A1 (Daiichi Sankyo, published 2019).
One block for each binder: values may come before it.

Assays:
[1] = target: T1, human GPRC5D amino-terminal peptide MYKDCIESTGDYFLLCDAEGPWGIILE-K(Biotin)-NH2, having an intramolecular … (human, C-terminal lysine carrying biotin, C-terminal amide; intramolecularly formed disulfide bond); experiment: ELISA, chemiluminescence: biotinylated amino-terminal peptide of human GPRC5D on NeutrAvidin, culture supernatant of IgG-expressing cells (one concentration, not given), HRP anti-human Fab detection
T1 construct: Peptide Institute synthetic peptide; also called amino-terminal peptide of biotinylated human GPRC5D (disulfide bond present)
T1 peptide: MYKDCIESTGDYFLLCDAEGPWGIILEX
Description: (§1) NeutrAvidin diluted to 1 μg/mL with PBS was added in an amount of 50 μL/well to 96-well Maxi-sorp plate, and the plate was left standing overnight at 4° C. for immobilization. After washing three times with an ELISA buffer, the amino-terminal peptide of the biotinylated human or cynomolgus monkey GPRC5D (used in Example 10)-1) diluted to 1 μg/mL with PBS was added thereto, and the plate was shaken at room temperature for 1 hour. After washing three times with an ELISA buffer, the plate was blocked with Blocker Casein and washed three times with an ELISA buffer. Then, the culture solution of the IgG-expressing FreeStyle 293F cells was added to the plate and reacted at room temperature for 2 hours. After washing three times with an ELISA buffer, a horseradish peroxidase (HRP)-labeled anti-human Fab antibody (Jackson ImmunoResearch Laboratories, Inc.) diluted 2500-fold with ELISA buffer was added thereto in an amount of 50 μL/well and reacted at room temperature for 1 hour. After washing five times with an ELISA buffer, SuperSignal Pico ELISA Chemiluminescent substrate was added. After 10 minutes, the chemiluminescence was measured using a plate reader.

human GPRC5D [2] = target: T2, human GPRC5D (human, UniProt Q9NZD1 1-345); experiment: flow cytometry on KHM-1B cells (human GPRC5D), PE anti-human IgG Fc detection, rMFI = MFI minus isotype control
T2 construct: whole, on cells; also called hGPRC5D; G-protein coupled receptor family C group 5 member D
Description: Human multiple myeloma cell line KHM-1B cells expressing GPRC5D were adjusted to a concentration of 2×10⁶ cells/mL with PBS containing 5% FBS, inoculated in an amount of 100 μL/well to a 96-well U-bottomed microplate, and centrifuged to remove the supernatant. The culture supernatant of each human anti-GPRC5D antibody (full-length IgG form containing C2037, C3048, C3015, or C3022) obtained in Example 10)-5 or Human IgG isotype control antibody (Calbiochem/Merck Millipore Corp.) adjusted to 14 ng/mL to 30 μg/mL was added thereto in an amount of 100 μL/well, and the plate was left standing at 4° C. for 1 hour. The cells were washed twice with PBS containing 5% FBS. Then, R-Phycoerythrin AffiniPure F(ab′)2 Fragment Goat Anti-Human IgG, Fcγ Fragment Specific (Jackson ImmunoResearch Laboratories, Inc.) diluted 100-fold with PBS containing 5% FBS was added thereto in an amount of 100 μL/well, and the plate was left standing at 4° C. for 1 hour. The cells were washed twice with PBS containing 5% FBS and then resuspended in PBS containing 5% FBS, followed by detection using a flow cytometer (FACSCanto™ II; Becton, Dickinson and Company). The data was analyzed using Flowjo (Tree Star, Inc.). The PE fluorescence intensity of the cell fraction was plotted to a histogram, and the mean fluorescence intensity (MFI) was calculated. The MFI value of the control antibody was subtracted from the MFI value of the GPRC5D antibody to calculate a relative value of MFI (rMFI).

[3] = target: T3, amino-terminal peptide of cynomolgus monkey GPRC5D …(Biotin)-NH2 (cynomolgus monkey, C-terminal lysine carrying biotin, C-terminal amide); experiment: ELISA, biotinylated peptide on NeutrAvidin
T3 construct: also called amino-terminal peptide of biotinylated cynomolgus monkey GPRC5D
T3 peptide: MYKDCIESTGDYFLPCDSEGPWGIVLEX
Description: as §1

human GPRC5D [4] = target: T2, human GPRC5D; experiment: flow cytometry, KHM-1B cells
Description: Human multiple myeloma cell line KHM-1B cells (JCRB Cell Bank) expressing GPRC5D were adjusted to a concentration of 5×10⁶ cells/mL with PBS containing 5% FBS, inoculated in an amount of 100 μL/well to a 96-well U-bottomed microplate, and centrifuged to remove a supernatant. Each rat anti-GPRC5D antibody (2A4, 2B1, and 7B4) adjusted to 0.32 ng/mL to 10 μg/mL in Example 1)-7 was added thereto in an amount of 100 μL/well, and the plate was left standing at 4° C. for 1 hour. The cells were washed twice with PBS containing 5% FBS. Then, PE Goat Anti-Rat Ab (Becton, Dickinson and Company) diluted 100-fold with PBS containing 5% FBS was added thereto at a concentration of 100 μL/well, and the plate was left standing at 4° C. for 1 hour. The cells were washed twice with PBS containing 5% FBS and then resuspended in PBS containing 5% FBS, followed by detection using a flow cytometer (FACSCanto™ II; Becton, Dickinson and Company). The data was analyzed using Flowjo (Tree Star, Inc.). The PE fluorescence intensity of the cell fraction was plotted to a histogram, and the mean fluorescence intensity (MFI) was calculated.

human GPRC5D [5] = target: T2, human GPRC5D; experiment: flow cytometry, KMS-34 cells
[6] = target: T4, human GPRC5D amino-terminal peptide …(Biotin)-NH2, lacking an intramolecular disulfide bond (human, biotinylated carboxy terminus, C-terminal amide; no intramolecularly formed disulfide bond); experiment: ELISA, immobilised biotinylated peptide without disulfide bond
T4 construct: Sigma-Aldrich synthetic peptide; also called amino-terminal peptide of human GPRC5D (disulfide bond absent)
T4 peptide: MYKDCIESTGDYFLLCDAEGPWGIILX
Excerpt: (§2) Epitopes bound by the obtained rat anti-GPRC5D antibodies (2A4, 2B1, and 7B4) were identified using a human GPRC5D amino-terminal peptide […](Biotin)-NH₂ (Sigma-Aldrich Corp.) (SEQ ID NO: 1 of the Sequence Listing; FIG. 2) having a biotinylated carboxy-terminal peptide and lacking an intramolecularly formed disulfide bond, and a human GPRC5D amino-terminal peptide […]-K(Biotin)-NH₂ (Peptide Institute, Inc.) (SEQ ID NO: 2 of the Sequence Listing; FIG. 3) having a lysine-containing biotinylated carboxy terminus and having an intramolecularly formed disulfide bond. Each peptide diluted with PBS was added to Nunc Immobilizer (Thermo Fisher Scientific Inc.), and the plate was left standing at room temperature for 1 hour. After washing three times with PBST, […] containing 1% BSA was added thereto, and the plate was left standing at room temperature for 1 hour. After washing three times with PBST, each rat anti-GPRC5D antibody (2A4, 2B1, and 7B4) prepared in Example 1)-7 and diluted to 0.1 ng/mL to 1 μg/mL with PBS was added thereto, and the plate was left standing at room temperature for 1 hour. […] After washing three times with PBST, SuperSignal™ ELISA Pico Chemiluminescent Substrate (Thermo Fisher Scientific Inc.) was added thereto, and the luminescence was measured using a plate reader (ENVISION; PerkinElmer, Inc.).

[7] = target: T1, human GPRC5D amino-terminal peptide …; experiment: ELISA, immobilised biotinylated peptide with disulfide bond
Excerpt: as §2

- binding result [1]: binds
- binding result (human GPRC5D [2]): binds
- binding result [3]: binds
B1: IgG form of the human antibody C3015 (antibody, V domains shown)
VH: EVQLVESGGGVVQPGRSLRLSCAASGFTFRNYAMSWVRQAPGKGLEWVSGISGTGGSTYYADSVKGRFTISRDNSKDTLYLQLNSLRAEDTAVYYCAKSRSMSINYGMDVWGQGTTVTVSS
VL: SYELTQPPSVSVSPGQTVSITCSGDNLGDRYASWYQQKPGQSPVQVIYQDTKRPSGIPERFSGSNSGNTATLTISGTQAMDEADYYCQAWDSNTVVFGGGTKLTVLG
notes: Human IgG1; also called C3015 IgG form; full-length IgG form containing C3015

- Kd (human GPRC5D [4]): 14.8 nM
- MFI (max) (human GPRC5D [4]): 2390
- Kd (human GPRC5D [5]): 12.7 nM
- MFI (max) (human GPRC5D [5]): 3160
- binding result [6]: binds
- binding result [7]: binds
B2: rat anti-GPRC5D antibody 2B1 (antibody, V domains shown)
VH: QVTLKESGPGILQPSQTLSLTCTFSGFSLNTYDMGVGWIRQPSGKGLEWLANIWWDDDKYYNPSLRNRLTISKDTSNNQAFLKITNVDTADTATYYCARIETVRVSRKGFAHWGQGTLVTVSS
VL: ETVMTQSPTSMSTSIGERVTLNCKASQSVGINVDWYQQTPGQSPKLLIYGASNRHTGVPDRFTGSGFGRDFTLTISNVEAEDLAVYYCLQHGSIPPTFGGGTKLELK
notes: Rat IgG2b, kappa chain
